Experimental data reported in patent publication US20020150536, “Nucleic acid ligands to integrins” (GILEAD SCIENCES, INC., published 2002).

Tests used:
integrin alphaV beta3 [1] = molecular target: T1, integrin alphaV beta3 (Homo sapiens, UniProt P06756;P06756;P05106 P06756:31-889,P06756:891-1048,P05106:27-788); assay: inhibition; inhibition of biotinylated vitronectin binding (10 nM), room temperature
Description: (§1) While the SELEX process identifies RNA sequences with high affinity for a particular target, the procedure used in this example was designed to bias for the recovery of ligand binding site inhibitors by the inclusion of a cRGD peptide competitor in the elution buffer. To test whether aptamer 17.16 could block the ligand binding site of αᵥβ₃ or αIIbβ₃, purified vitronectin and fibrinogen were biotinylated and incubated with one or both of the immobilized integrins in the presence or absence of varying concentrations of the aptamer or a non-binding control RNA. This was done as follows: purified integrin ligands, vitronectin and fibrinogen, were biotinylated according to (Smith et al. (1990) J. Biol. Chem. 265:12267-71). Briefly, proteins were dialyzed into 0.1 M NaHCO₃, 0.1 M NaCl. N-hydroxysuccinimido-LC-biotin (Pierce) was dissolved at 1 mg/mL in DMSO and added to the protein at a ratio of 0.1 mg biotin per 1 mg protein. The reaction was allowed to rotate at room temperature for 2 hours. Biotinylated proteins were dialyzed into phosphate-buffered saline and their concentrations determined by absorbance at 280 nm. […] Absorbance was read at 405 nm.

integrin alphaIIb beta3 [2] = molecular target: T2, integrin alphaIIb beta3 (UniProt P08514;P08514;P05106 P08514:32-887,P08514:891-1039,P05106:27-788); assay: affinity identical to alphaV beta3; platelet Kd of ~10 nM stated equivalent to purified alphaIIb beta3; conditions: tags: Enzyme Research Laboratories
Description: (§2) The affinity of individual RNAs and RNA pools for αᵥβ₃ was determined by titration of biotinylated RNA with a small quantity of immobilized integrin. Bound RNA was detected through the biotin moiety. Biotinylated RNA was prepared according to standard transcription protocols, but including a 5-fold molar excess of a 5′-biotin-modified GMP over GTP in the reaction mixture. Methods for synthesizing 5′-biotin-modified guanosine nucleotides are described in WO 98/30720 entitled “Bioconjugation of Oligonucleotides,” specifically incorporated herein by reference in its entirety. The modified nucleotide is incorporated at the 5′ end of the transcript in proportion to its representation in the guanosine pool. 96-well microtiter plates (Immulon 2, Dynatech Laboratories, Inc., Chantilly, Va.) were coated overnight at 4° C. with 100 μL purified αᵥβ₃ at a concentration of 0.25 μg/mL in 20 mM TrisHCl, pH 7.5, 150 mM NaCl, 1 mM MgCl₂, 2 mM CaCl₂, 0.1 mM MnCl₂. Coating concentrations were 0.8 μg/mL for αIIbβ₃ and 0.3 μg/mL for αᵥβ₅. Wells were blocked with 200 μL of a solution of 3% BSA in the same buffer (1 hour at room temperature) then rinsed 3 times with 200 μL binding buffer (50 mM TrisHCl, pH 7.5, 137 mM NaCl, 2.7 mM KCl, 1 mM MgCl₂, 2 mM CaCl₂, 0.1 mM MnCl₂, 0.1% BSA). […] Color development was monitored by absorbance at 405 nm.

integrin alphaV beta5 = integrin alphaV beta5 (Homo sapiens, UniProt P06756;P06756;P18084 P06756:31-889,P06756:891-1048,P18084:24-799); assay: no binding observed to immobilized alphaV beta5; conditions: tags: Chemicon International
Sequence of integrin alphaV beta5 (P06756 31-889, chain 1 of 3): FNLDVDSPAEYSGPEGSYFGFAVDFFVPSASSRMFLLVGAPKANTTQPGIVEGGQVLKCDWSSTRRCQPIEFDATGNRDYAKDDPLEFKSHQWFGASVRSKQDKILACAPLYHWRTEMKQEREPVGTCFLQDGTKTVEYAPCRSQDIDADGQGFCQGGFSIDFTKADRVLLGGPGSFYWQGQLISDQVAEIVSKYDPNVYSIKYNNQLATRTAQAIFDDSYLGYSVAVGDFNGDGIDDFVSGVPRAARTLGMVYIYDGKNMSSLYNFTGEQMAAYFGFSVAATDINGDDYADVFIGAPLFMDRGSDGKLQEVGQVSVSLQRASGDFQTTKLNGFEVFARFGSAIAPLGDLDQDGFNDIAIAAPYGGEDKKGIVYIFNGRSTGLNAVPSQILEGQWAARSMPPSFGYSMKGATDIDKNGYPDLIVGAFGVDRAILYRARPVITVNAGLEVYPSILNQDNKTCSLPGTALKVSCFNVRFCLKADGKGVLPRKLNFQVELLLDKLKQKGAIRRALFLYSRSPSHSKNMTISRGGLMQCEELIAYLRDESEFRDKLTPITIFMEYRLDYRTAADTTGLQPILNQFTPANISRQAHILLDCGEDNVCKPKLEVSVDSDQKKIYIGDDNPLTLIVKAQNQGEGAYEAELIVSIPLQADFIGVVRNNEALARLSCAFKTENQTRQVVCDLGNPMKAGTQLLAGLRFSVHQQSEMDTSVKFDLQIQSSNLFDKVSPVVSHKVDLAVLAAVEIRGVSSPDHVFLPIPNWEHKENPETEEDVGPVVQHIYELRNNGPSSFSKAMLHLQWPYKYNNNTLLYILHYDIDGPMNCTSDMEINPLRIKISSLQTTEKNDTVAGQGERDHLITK
Sequence of integrin alphaV beta5 (P06756 891-1048, chain 2 of 3): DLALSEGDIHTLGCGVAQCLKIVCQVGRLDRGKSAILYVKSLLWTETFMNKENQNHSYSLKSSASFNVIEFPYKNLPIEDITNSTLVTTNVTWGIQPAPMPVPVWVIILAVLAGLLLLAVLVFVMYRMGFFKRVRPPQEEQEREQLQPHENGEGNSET
Sequence of integrin alphaV beta5 (P18084 24-799, chain 3 of 3): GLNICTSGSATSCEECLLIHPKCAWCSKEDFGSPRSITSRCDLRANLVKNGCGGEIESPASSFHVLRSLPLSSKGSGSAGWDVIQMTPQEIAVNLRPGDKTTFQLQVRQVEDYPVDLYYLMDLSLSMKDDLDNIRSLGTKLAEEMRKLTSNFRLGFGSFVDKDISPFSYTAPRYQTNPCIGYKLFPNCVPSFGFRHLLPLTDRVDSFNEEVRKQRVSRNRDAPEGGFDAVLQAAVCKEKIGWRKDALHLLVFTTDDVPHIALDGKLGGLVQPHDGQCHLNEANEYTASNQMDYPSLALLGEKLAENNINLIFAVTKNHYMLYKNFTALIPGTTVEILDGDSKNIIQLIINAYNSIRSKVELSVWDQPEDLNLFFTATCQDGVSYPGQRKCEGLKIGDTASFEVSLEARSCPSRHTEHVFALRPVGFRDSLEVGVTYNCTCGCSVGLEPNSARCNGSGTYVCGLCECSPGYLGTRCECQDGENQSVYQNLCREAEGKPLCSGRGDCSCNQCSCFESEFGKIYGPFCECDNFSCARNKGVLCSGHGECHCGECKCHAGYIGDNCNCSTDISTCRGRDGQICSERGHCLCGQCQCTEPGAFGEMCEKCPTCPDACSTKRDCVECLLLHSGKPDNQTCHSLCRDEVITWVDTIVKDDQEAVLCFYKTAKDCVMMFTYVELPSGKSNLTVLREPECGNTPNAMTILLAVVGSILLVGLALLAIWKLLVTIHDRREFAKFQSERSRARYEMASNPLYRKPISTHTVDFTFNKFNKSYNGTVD
Description: as §2

[3] = molecular target: integrin alphaIIb beta3 on human platelets (Homo sapiens, UniProt P08514;P08514;P05106 P08514:32-887,P08514:891-1039,P05106:27-788); assay: flow; EDTA-sensitive binding, same for resting and thrombin-activated platelets; Mg2+, Ca2+, room temperature
integrin alphaV beta3 [4] = molecular target: T1, integrin alphaV beta3; assay: microtiter plate, streptavidin-AP; Mg2+, Ca2+, Mn2+, pH 7.5, 37 C
Description: The affinity of individual RNAs and RNA pools for αᵥβ₃ was determined by titration of biotinylated RNA with a small quantity of immobilized integrin. Bound RNA was detected through the biotin moiety. Biotinylated RNA was prepared according to standard transcription protocols, but including a 5-fold molar excess of a 5′-biotin-modified GMP over GTP in the reaction mixture. Methods for synthesizing 5′-biotin-modified guanosine nucleotides are described in WO 98/30720 entitled “Bioconjugation of Oligonucleotides,” specifically incorporated herein by reference in its entirety. The modified nucleotide is incorporated at the 5′ end of the transcript in proportion to its representation in the guanosine pool. 96-well microtiter plates (Immulon 2, Dynatech Laboratories, Inc., Chantilly, Va.) were coated overnight at 4° C. with 100 μL purified αᵥβ₃ at a concentration of 0.25 μg/mL in 20 mM TrisHCl, pH 7.5, 150 mM NaCl, 1 mM MgCl₂, 2 mM CaCl₂, 0.1 mM MnCl₂. Coating concentrations were 0.8 μg/mL for αIIbβ₃ and 0.3 μg/mL for αᵥβ₅. Wells were blocked with 200 μL of a solution of 3% BSA in the same buffer (1 hour at room temperature) then rinsed 3 times with 200 μL binding buffer (50 mM TrisHCl, pH 7.5, 137 mM NaCl, 2.7 mM KCl, 1 mM MgCl₂, 2 mM CaCl₂, 0.1 mM MnCl₂, 0.1% BSA). Individual RNAs or RNA pools were denatured briefly at 93° C. in binding buffer without divalent cations or BSA, then serially diluted in the same buffer. 50 μL binding buffer containing 2×-concentrations of divalent cations and BSA were added to each well, followed by 50 μL RNA dilution. RNAs were allowed to incubate in the integrin-coated wells at 37° C. for 30-60 minutes. Unbound RNAs were removed by 3 rapid washes in binding buffer. To detect bound RNA, 100 μL of a 1:2500 dilution in binding buffer of streptavidin-alkaline phosphatase conjugate (Calbiochem) were incubated in each well for 30 minutes at room temperature, followed by three rapid washes, as above. 100 μL/well p-nitrophenyl phosphate (Sigma Chemical Co., St. Louis, Mo.) was added and incubated at room temperature for 30 minutes. Color development was monitored by absorbance at 405 nm.

integrin alphaIIb beta3 [5] = molecular target: T2, integrin alphaIIb beta3; assay: inhibition; inhibition of biotinylated fibrinogen binding (6 nM), room temperature; conditions: tags: Enzyme Research Laboratories
Description: (§3) An estimate of the maximum absorbance value was determined for each ligand/integrin pair in the absence of competitor. The baseline absorbance value was determined by adding 5 mM EDTA to the incubation buffer.
as §1

integrin alphaV beta3 [6] = molecular target: T1, integrin alphaV beta3; assay: as above
Description: as §3, §1

T1 sequence (P06756 31-889, chain 1 of 3): as the sequence (P06756 31-889, chain 1 of 3) above
T1 sequence (P06756 891-1048, chain 2 of 3): as the sequence (P06756 891-1048, chain 2 of 3) above
T1 sequence (P05106 27-788, chain 3 of 3): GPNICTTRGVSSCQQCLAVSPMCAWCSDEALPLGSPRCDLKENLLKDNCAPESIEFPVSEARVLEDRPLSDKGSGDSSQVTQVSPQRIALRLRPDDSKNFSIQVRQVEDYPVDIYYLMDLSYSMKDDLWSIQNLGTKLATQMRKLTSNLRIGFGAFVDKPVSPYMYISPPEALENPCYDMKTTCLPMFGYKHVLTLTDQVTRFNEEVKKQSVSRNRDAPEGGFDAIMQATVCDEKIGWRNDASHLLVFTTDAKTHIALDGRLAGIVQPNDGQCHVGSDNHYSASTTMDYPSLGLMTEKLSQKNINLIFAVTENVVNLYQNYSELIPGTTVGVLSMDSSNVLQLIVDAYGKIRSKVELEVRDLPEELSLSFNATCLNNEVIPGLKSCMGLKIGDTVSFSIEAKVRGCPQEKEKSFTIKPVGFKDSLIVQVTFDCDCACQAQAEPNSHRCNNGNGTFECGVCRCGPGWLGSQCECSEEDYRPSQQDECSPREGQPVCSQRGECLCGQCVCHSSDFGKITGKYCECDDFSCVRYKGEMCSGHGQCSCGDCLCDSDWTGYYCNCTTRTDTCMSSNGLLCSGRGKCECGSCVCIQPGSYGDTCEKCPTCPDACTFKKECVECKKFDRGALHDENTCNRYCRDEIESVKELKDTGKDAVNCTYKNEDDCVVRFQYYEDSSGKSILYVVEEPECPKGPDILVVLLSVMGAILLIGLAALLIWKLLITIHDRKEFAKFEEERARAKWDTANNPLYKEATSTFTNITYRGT

B1: 17.16 (ssRNA)
RNA: GGGAGACAAGAAUAAACGCUCAAUUCAACGCUGUGAAGGGCUUAUACGAGCGGAUUACCCUUCGACAGGAGGCUCACAACAGGC
modifications: 2'-F C and U
Which IC50 (integrin alphaV beta3 [1]) does the source give for B1 here?
The IC50 was 4.7 nM.

What about the Kd (integrin alphaIIb beta3 [2]) of the same binder?
Its Kd is roughly 10 nM.

Does B1 bind (integrin alphaV beta5)?
Result: no binding

What about the Kd [3] of the same binder?
Its Kd is roughly 10 nM.

What about the Kd (integrin alphaV beta3 [4]) of the same binder?
The Kd was 8 nM.

What about the IC50 (integrin alphaIIb beta3 [5]) of the same binder?
The IC50 was 6.5 nM.

And the IC50 (integrin alphaV beta3 [6])?
The IC50 was 9.5 nM.
